Results taken from patent US20190351015.

B1: Siah1 (protein)
chain: MSRQTATALPTGTSKCPPSQRVPALTGTTASNNDLASLFECPVCFDYVLPPILQCQSGHLVCSNCRPKLTCCPTCRGPLGSIRNLAMEKVANSVLFPCKYASSGCEITLPHTEKADHEELCEFRPYSCPCPGASCKWQGSLDAVMPHLMHQHKSITTLQGEDIVFLATDINLPGAVDWVMMQSCFGFHFMLVLEKQEKYDGHQQFFAIVQLIGTRKQAENFAYRLELNGHRRRLTWEATPRSIHEGIATAIMNSDCLVFDTSIAQLFAENGNLGINVTISMC
Degradation by Siah1 (Nkx3.2 (99-320)): + | Degradation by Siah1 (Nkx3.2 (150-320)): - | Degradation by Siah1 (Nkx3.2 (99-333)): ++ | Degradation by Siah1 (Nkx3.2 (123-320)): - | Degradation by Siah1 (Nkx3.2 (1-320)): + | Degradation by Siah1 (Nkx3.2 (112-333)): ++ | Degradation by Siah1 (Nkx3.2 (112-320)): - | Degradation by Siah1 (Nkx3.2 (1-307)): - | Degradation by Siah1 (Nkx3.2 (99-330)): +++ | Degradation by Siah1 (Nkx3.2 (165-310)): ++ | Degradation by Siah1 (Nkx3.2 (110-324)): +++ | Degradation by Siah1 (Nkx3.2 (42-333)): +++ | Degradation by Siah1 (Nkx3.2 (156-316)): ++ | Degradation by Siah1 (Nkx3.2 (159-314)): ++ | Degradation by Siah1 (Nkx3.2 (123-333)): - | Degradation by Siah1 (Nkx3.2 (99-327)): +++ | Degradation by Siah1 (Nkx3.2 (1-333)): +++ | Degradation by Siah1 (Nkx3.2 (130-320)): - | Degradation by Siah1 (Nkx3.2 (153-318)): - | Degradation by Siah1 (Nkx3.2 (105-327)): ++ | Degradation by Siah1 (Nkx3.2 (162-312)): ++
